Laboratory results reported in publication PMC3201874.

Biological target: huPrP(23-110) (human) (UniProt P04156)
Conditions: FRET: 25 mM Tris-HCl pH 7.5, 30 mM NaCl, 0.2 mM MgCl2, 20 C

Sequence of huPrP(23-110) (human) (P04156 23-110): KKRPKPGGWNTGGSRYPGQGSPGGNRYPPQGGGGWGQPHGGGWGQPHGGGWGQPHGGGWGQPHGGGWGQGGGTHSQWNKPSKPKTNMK

cTAR
Ka: > 1e+07 M⁻¹
